Where “and” joins values, the source holds several entries; their conditions need not be identical. Equal entries are not always repeated.
Key:
[1] = molecular target: RING_(MUL1):UBE2D2 complex (UniProt Q969V5); experiment: ITC
[2] = molecular target: UBE2D2 (UniProt P62837); experiment: ITC
[3] = molecular target: p53 transactivation domain (residues 1–73) (human) (UniProt P04637); experiment: NMR titration
Chain of p53 transactivation domain (residues 1–73) (human) (P04637 1-73): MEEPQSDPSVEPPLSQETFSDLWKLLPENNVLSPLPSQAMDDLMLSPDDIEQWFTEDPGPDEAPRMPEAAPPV

Chain of p53 transactivation domain (residues 1–73) (P04637 1-73): as above
Chain of RING domain of MUL1 (residues 298–352) (Q969V5 298-352): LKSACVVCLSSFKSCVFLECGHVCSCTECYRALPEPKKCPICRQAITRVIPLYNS

## AD39 peptide (p53 residues 39–57)
[1]
  Kd: 184 µM and 175 µM and 193 µM
  dH: -1.13 kcal/mol and -1.15 kcal/mol and -1.12 kcal/mol
  stoichiometry N: 0.88 and 0.89 and 0.87

## RING domain of MUL1 (residues 298–352) (from UniProt Q969V5 298-352) (domain or fragment)
[2]
  Kd: 43 µM and 28 µM and 13 µM
  dH: 1.5 kcal/mol

## RING_(MUL1):UBE2D2 complex (from UniProt Q969V5 298-352; P62837 1-147)
[3]
  Kd: 171 µM

## UBE2D2 (from UniProt P62837 1-147) (enzyme)
[3]
  Kd: 735 µM

## p53 transactivation domain (residues 1–73) (from UniProt P04637 1-73) (domain or fragment)
[1]
  Kd: 111 µM
  dH: -0.673 kcal/mol
  stoichiometry N: 1.01

From article PMC9304225
